The results in this text go back to patent publication US20240043508A1.

This experiment addresses SARS-CoV-2 S protein of the B.1 (D614G) variant, on pseudotyped lentiviral particles (SARS-CoV-2). Description: cell-based or functional assay.

B1: K202.A (bispecific antibody)
heavy: EVQLLESGGGLVQPGGSLRLSCAASGFTFSDYAMSWVRQAPGKGLEWVSWIYSGSGNKYYADSVKGRFTISRDNSKNTLYLQMNSLRAEDTAVYYCARFPIARTSNSQSSYDGMDVWGQGTLVTVSSASTKGPSVFPLAPCSRSTSESTAALGCLVKDYFPEPVTVSWNSGALTSGVHTFPAVLQSSGLYSLSSVVTVPSSSLGTKTYTCNVDHKPSNTKVDKRVESKYGPPCPPCPPCPAPEFLGGPSVFLFPPKPKDTLMISRTPEVTCVVVDVSQEDPEVQFNWYVDGVEVHNAKTKPREEQFNSTYRVVSVLTVLHQDWLNGKEYKCKVSNKGLPSSIEKGQPREPQVYTLPPSQEEMTKNQVSLTCLVKGFYPSDIAVEWESNGQPENNYKTTPPVLDSDGSFFLYSRLTVDKSRWQEGNVFSCSVMHEALHNHYTQKSLSLSLGK
light: QSVLTQPPSASGTPGQRVTISCSGSSSNIGSNAVSWYQQLPGTAPKLLIYADNKRPSGVPDRFSGSKSGTSASLAISGLRSEDEADYYCGAWDSSLNAYVFGGGTKLTVLVAAPSVFIFPPSDEQLKSGTASVVCLLNNFYPREAKVQWKVDNALQSGNSQESVTEQDSKDSTYSLSSTLTLSKADYEKHKVYACEVTHQGLSSPVTKSFNRGEC
scFv: EVQLLESGGGLVQPGGSLRLSCAASGFTFSSYDMSWVRQAPGKGLEWVSGISYSGGSTYYADSVKGRFTISRDNSKNTLYLQMNSLRAEDTAVYYCARDVNFVPLVTFDYWGQGTLVTVSSGGGGSGGGGSGGGGSQSVLTQPPSASGTPGQRVTLSCTGSSSNIGSNSVTWYQQLPGTAPKLLIYDDNQRPSGVPDRFSGSKSGTSASLAISGLRSEDEADYYCGTWDYSLSAYVFGGGTKLTVL
For the molecule B1, the IC50 (nM), pseudotyped virus infection is 0.39 nM.

B2: K202.B (bispecific antibody)
heavy: B1 heavy
light: B1 light
scFv: B1 scFv
In turn, B2 displayed an IC50 (nM), pseudotyped virus infection of 0.12 nM.

B3: RD3 (antibody, V domains shown)
VH: EVQLLESGGGLVQPGGSLRLSCAASGFTFSDYAMSWVRQAPGKGLEWVSWIYSGSGNKYYADSVKGRFTISRDNSKNTLYLQMNSLRAEDTAVYYCARFPIARTSNSQSSYDGMDVWGQGTLVTVSS
VL: QSVLTQPPSASGTPGQRVTISCSGSSSNIGSNAVSWYQQLPGTAPKLLIYADNKRPSGVPDRFSGSKSGTSASLAISGLRSEDEADYYCGAWDSSLNAYVFGGGTKLTVL
As to B3, the IC50 (nM), pseudotyped virus infection came out at 2.22 nM and the IC50 (nM), pseudovirus neutralization, luciferase in 293T/hACE2 cells was found to be 1.4 nM.
